Assay results from US20220125947A1.
Numbering of substitutions follows the chain as printed.

B1: VG9B386 (antibody, human IgG1, kappa, V domains shown)
VH: EVQLVESGGGLVKPGGSLRLSCAASGFTFSSYSMIWVRQAPGKGLEWVSSIGSSSTYIYYADSVRGRFTISRDNAKTSLYLQMNSLRAEDTAMYFCARDGETGGFDYWGQGILVTVSS
VL: EIVMTQSPGTLSLSPGERATLSCRASQSISRSYLAWYQQKPGQPPRLLIYGPSNRATGIPDRFSASGSGTDFTLTNSRLEPEDFAVYYCQQYGSLPLTFGGGTKVEIKR
B2: VG9B144 (antibody, human IgG1, lambda, V domains shown)
VH: QVQLVQSGAEVKKPGASVKVSCKASGYTFTGYYMHWMRQAPGQGLEWMGWINPNSGATNKEQKFQGRVTMTRDTSISTAYMELSRLRSDDTAVYYCAREDDAFDVWGQGTMVTVSS
VL: SSELTQDPAVSVALGQTVRITCQGDNLRNYYATWFQQKPGQAPVLVFFGKNNRPSGIPDRFSGSSSGDTASLTITGAQAEDEADYYCNSRDSSGNHVVFGGGTKLTVLG
B3: VG9B189 (antibody, human IgG1, lambda, V domains shown)
VH: EVQLVQSGGGLVKPGASLKLSCAASGFTFSNHGMSWVRQTSDKRLEWVASITRGGDTTYYPDNVKGRFTISRENAKNTLYLQMSSLKSDDTALYYCTRGPLTVGYAMDYWGQGTTVTVSS
VL: QSVVTQPPSASGSPGQSVTISCTGTSSDVGGYNYVSWYQQHPGKAPKLMIYEVSKRPSGVPDRFSGSKSGNTASLTVSGLQAEDEADYYCNSYAGSNNFEVFGGGTKVTVLG
B4: VG9B112 (antibody, human IgG1, kappa, V domains shown)
VH: QVQLQQSGPGLVKPSQTLSLTCAISGDSVSSNSAAWNWIRQSPSRGLEWLGGTYYRSKWFNNYAVSVKSRITINPDTSTNQFSLQLNSVTPADTAVYYCARGEWGLRDAFDIWGQGTMVTVSS
VL: DIQMTQSPSFLSASVGDRVIITCRASQGIHSYLAWYQQKPGKVPKLLIYVASTLQSGVPSRFSGSGSGTEFTLTISSLQPEDFATYYCQQLNSYPWTFGQGTKLEIKR
B5: VG9B136 (antibody, human IgG1, kappa, V domains shown)
VH: QVQLQQSGPGLVKPSQTLSLTCAISGDSVSSNRAAWNWIRQSPSKGLEWLGRTYYRSKWYNEYAASVKSRMSINPDTSKNQFSLQLNSVTPEDTALYYCARDLWELREACDIWGQGTMVTVSS
VL: B4 VL with Q3V, A13T, S14F, I20T, H30S, W96F, Q100P, L104V, E105D
B6: VG9B41 (antibody, human IgG1, kappa, V domains shown)
VH: QVQLQESGPQLVRPGASVKISCKASGYSFTTYWMHWVKQRPGQGLEWIGLIDPSDSETRLNQKFKDKATLTVDKSSSTAYMRLSSPTSEDSAVYYCASNRWLLGWGQGTMVTVSS
VL: EIVLTQTPLSSPVTLGQPASISCRSSQSLVHSDGNTYLSWLHQRPGQPPRLLIYKISNRFSGVPDRFSGSGAGTDFTLKISRVETEDVGVYYCVQTREFPLTFGGGTKVEIKR
B7: VG9B33 (antibody, human IgG1, kappa, V domains shown)
VH: EVQLVESGGGLVKPGGSLRLSCAASGFTFSSYNMNWVRQAPGKGLEWVSSISTSSSYIYYADSVKGRFTISRDNAKNSLYLQMNGLRAEDTAVYYCARDTSVTKYPDTFDIWGQGTMVTVSS
VL: DIVMTQSPSSLSASVGDRVTITCRASQDINNYLAWFQQKPGKVPNLLIYGASTLQSGVPSRFTGSGSGTDFTLTISSLQPEDVATYYCQKYNSAPFTFGPGTKVDIKR
B8: VG9B57 (antibody, human IgG1, kappa, V domains shown)
VH: EVQLVESGGGLVKPGGSLRLSCAASGFTFSSHDMNWVRQAPGKGLGWVSSISSSSSYIFYADSVKGRFTISRDNAKNSLYLQMSSLRAEDTAVYYCARDLGVGVRDYYYYGMDVWGQGTMVTVSS
VL: DIQMTQSPSAMSASVGDRVTITCRASQDITNYLAWFQQKPGKVPKRLIYAASSLQGGVPSRFSGSGSGTEFTLTISSLQPEDFSTYYCLQHDTYPYTFGQGTKLEIKR
B9: VG9B162 (antibody, human IgG1, lambda, V domains shown)
VH: B2 VH with Q6E, K12T, Y32D, M37V, A57Y, K60Y, E61A, D100G
VL: B3 VL with S2L, V4L, P7S, P8S, V108L
B10: VG9B67 (antibody, human IgG1, kappa, V domains shown)
VH: EVQLVESGGGLVKPGGSLRLSCAASGFTFSSYTMNWVRQAPGKGLEWVSSISSSSSYIDYAESVKGRFTISRDNAKNSLYLQMNSLRAEDTAVYYCARDGDILATIRGSFDYWGQGTTVTVSS
VL: DIVMTQTPLSLPVTPGEPASISCRSSQSLLDSDAGNTYLDWYLQKPGQSPQLLIYTLSYRASGVPDRFSGSGSGTDFTLKISRVEAEDVAIYYCMQRIEFPITFGQGTKVEIKR
B11: VG9B66 (antibody, human IgG1, kappa, V domains shown)
VH: B10 VH with S31T, S56F, I58M, E62D, Y80S, Q82L, L103V, T118M
VL: EIVLTQSPSSLSTSVGDRVTITCRASQDITNFLAWYQQKPGKLPKLLIYTASTLQSGVPSRFSGSASGPDFTLTISSLQPEDVATYYCQKYNSAPFTFGPGTKVEIKR
B12: VG9B127 (antibody, human IgG1, kappa, V domains shown)
VH: B10 VH with E1Q, A23T, S30G, S31A, Y60F, N84I, L103V, A104S, T117A, T118L
VL: B10 VL with D1E, T7S, A34D, A90G
B13: VG9B409 (antibody, human IgG1, kappa, V domains shown)
VH: EVQLVESGAEVKKPGASVKVSCKASGYTLTSYYMHWVRQAPGQGLEWMGIINPSGGSTSYAQKFQGRVTMTRDTSTSTVYMELSSLRSEDTAVYYCARGSYGWYFDLWGRGTLVTVSS
VL: EIVLTQSPGTLSLSPGERATLSCRASQSVTSSYLAWYQQKPGQTPRLLIYGASSRATGIPDRISGSGSGTDFTLTVSRLEPEDFAVYYCQQYGSSPPYTFGQGTKLEIKR
B14: VG9B152 (antibody, human IgG1, lambda, V domains shown)
VH: EVQLVESGGGLVRPGGSLRLSCEASGFTFSSYSMIWVRQAPGKGLEWVSSISSSSDYIYNADSVKGRFTISRDNAKNSLYLQMNSLRAEDTAVYYCARDWELLGFDCWGQGTTVTVSS
VL: SYELMQPPSVSVSPGQTASITCSGDKLGDKYACWYQQKPGQSPVLVIYQHNKRPSGIPERFSGSNSGKTATLTISGTQAMDEADYYCQAWDSTTVVFGGGTKLTVLG
B15: VG9B44 (antibody, human IgG1, kappa, V domains shown)
VH: QVQLQQSGPGLVKPSQTLSLTCAISGDSVSSNSAAWNWIRQSPSRGLEWLGRTYYRSKWYNDYPISVKSRISINPDTSKNQFSLQLNSVTPEDTAVYYCARESGSYYTDGFDIWGQGTMVTVSS
VL: B4 VL with I20T, H30S, V43A, V50A, Q90E, L91F, W96Y
B16: VG9B191 (antibody, human IgG1, lambda, V domains shown)
VH: EVQLVQSGGGLVKPGGSLRLSCAASGFTFSRYSMNWVRQAPGKGLEGVSSISSSSSYIYYADSVKGRFTISRDNAKNSLYLQMNSLRAEDTAVYYCARDGPTVNWDYYFDLWGRGTLVTVSS
VL: QSVLTQPPSVSAAPGQKVTISCSGSSSNIGNNYVSWYQQLPGTAPKLLIYDNNKRPSGIPDRFSGSKSGTSATLGITGLQTGDEADYYCGTWDSSLSTSVVFGGGTKLTVLG
B17: VG9B21 (antibody, human IgG1, kappa, V domains shown)
VH: EVQLLESGGGLVKPGGSLRLSCAASGFSFSNYDMNWVRQAPRKGLEWVSSISSSSHYIYYADSLKGRFTISRDNAKNSLFLQMNSLRAEDTAVYYCARDRGVTTDYYYYALDVWGQGTMVTVSS
VL: DIVMTQSPSSLSASVGDRVTITCRASQGIYNYLAWYQQKPGNVPKLLIYAASTLQSGVPSRFSGSGSGTDFSLTISSLQPEDFTTYYCQKYNRAPFTFGPGTKVDIKR
B18: VG9B60 (antibody, human IgG1, kappa, V domains shown)
VH: QVQLVQSGAEVKKPGASVKVSCKASGYTFTGYYMHWVRQAPGQGLEWMGRINPNSGVTHYAQKFQGRVTMTRDTSISTAYMELSRLRSDDTAVYYCARGGSLVRGVISGLDYWGQGTTVTVSS
VL: DIVMTQSPGTLSLSPGERATLSCRASQSFSGSYLAWYQQKPGQAPSLLIYGASSRATGIPDRFSGSGSGTDFTLTISRLEPEDFALYYCQQYGSSPPYTFGQGTKVEIKR

molecular target: Vg9/Vd1 TCR on SKW3 cells (UniProt Q99603); experiment: flow cytometry DRC binding 37 C, SKW3 cells expressing Vg9/Vd1
Sequence (Q99603 21-122): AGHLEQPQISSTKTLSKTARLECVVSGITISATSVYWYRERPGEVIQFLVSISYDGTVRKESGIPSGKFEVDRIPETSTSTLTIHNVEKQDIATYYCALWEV

Row | Binder | Max. Activity (fold over background)
1 | B1 | 389
2 | B2 | 205
3 | B3 | 1.46
4 | B4 | 328
5 | B5 | 288
6 | B6 | 2.18

molecular target: Vg9/Vd1 TCR on SKW3 cells (UniProt Q99603); experiment: flow cytometry, dose-response binding at 37° C. on SKW3 cells expressing Vg9/Vd1

Row | Binder | Max. Activity (fold over background)
7 | B7 | 377
8 | B8 | 75.9
9 | B9 | 249
10 | B10 | 318
11 | B11 | 179
12 | B12 | 318
13 | B13 | 408
14 | B14 | 352
15 | B15 | 375
16 | B16 | 381
17 | B17 | 121
18 | B18 | 40.6

molecular target: Vg5/Vd2 TCR on SKW3 cells (UniProt A0JD36); experiment: flow cytometry, dose-response binding at 37° C. on SKW3 cells expressing Vg5/Vd2
Sequence (A0JD36 20-115): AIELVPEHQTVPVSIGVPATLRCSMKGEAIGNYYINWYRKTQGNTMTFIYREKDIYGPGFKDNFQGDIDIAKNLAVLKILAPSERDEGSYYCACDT

Row | Binder | Max. Activity (fold over background)
19 | B7 | 2.85
20 | B8 | 1.04
21 | B9 | 2.44
22 | B10 | 1.14
23 | B11 | 1.04
24 | B12 | 1.78
25 | B13 | 8.45
26 | B14 | 1.64
27 | B15 | 2.13
28 | B16 | 17.2
29 | B17 | 1.86
30 | B18 | 1.42

molecular target: Vg9/Vd2 TCR on SKW3_4 cells (UniProt Q99603); experiment: flow cytometry DRC binding 37 C, SKW3_4 cells expressing Vg9/Vd2
Sequence (Q99603 21-122, chain 1 of 2): as the sequence (Q99603 21-122) above
Sequence (A0JD36 20-115, chain 2 of 2, further chain): as the sequence (A0JD36 20-115) above

Row | Binder | Max. Activity (fold over background)
31 | B1 | 211
32 | B2 | 123
33 | B3 | 46.1
34 | B4 | 227
35 | B5 | 181
36 | B6 | 11.4

molecular target: Vg5/Vd2 TCR on SKW3 cells (UniProt A0JD36); experiment: flow cytometry DRC binding 37 C, SKW3 cells expressing Vg5/Vd2

Row | Binder | Max. Activity (fold over background)
37 | B1 | 92.7
38 | B2 | 194
39 | B3 | 21.5
40 | B4 | 217
41 | B5 | 226
42 | B6 | 16.1

molecular target: Vg9/Vd2 TCR on SKW3_4 cells (UniProt Q99603); experiment: flow cytometry, dose-response binding at 37° C. on SKW3_4 cells expressing Vg9/Vd2

Row | Binder | Max. Activity (fold over background)
43 | B7 | 173
44 | B8 | 30.8
45 | B9 | 96.3
46 | B10 | 128
47 | B11 | 33.9
48 | B12 | 91.9
49 | B13 | 176
50 | B14 | 141
51 | B15 | 170
52 | B16 | 156
53 | B17 | 39.7
54 | B18 | 16.7
